In PMC11001878, “Engineering an artificial catch bond using mechanical anisotropy” (Nature Communications, 2024):

Key:
[1] = target: ybbr-ELP-FLN-DocG (Ruminococcus champanellensis); test: AFM single-molecule force spectroscopy; constant pulling speed (100, 400, 800, 3200 nm/s); both partners tethered through ybbr tags, CohE on the cantilever and DocG on the glass; dwell 200 ms; TBS Ca buffer (25 mM Tris, 72 mM NaCl, 1 mM CaCl2, pH 7.2); zero-force off rate k0 from a Bell-Evans fit, one for each unbinding pathway
[2] = target: DocG-FLN-ELP-ybbr (Ruminococcus champanellensis); test: as above
[3] = target: T1, DocG A77C mutant protein labeled with Cy3b (Ruminococcus champanellensis, A77C, Cy3b (maleimide-conjugated) on the cysteine at 77); test: MST; 20 nM Cy3b-labelled DocG A77C mixed with a series of CohE, 16 samples, 0.0763 nM to 2.5 µM; Nanotemper Monolith NT.115; conditions: both partners purified
T1 chain: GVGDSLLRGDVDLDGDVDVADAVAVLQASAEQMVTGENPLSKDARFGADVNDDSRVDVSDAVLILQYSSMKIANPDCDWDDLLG

## ybbr-ELP-FLN-CohE (domain or fragment)
[1]
  log(k0), single pathway: -4.2

## CohE-FLN-ELP-ybbr (domain or fragment)
[2]
  log(k0), high force pathway: -7
  log(k0), low force pathway: -31
[1]
  log(k0), high force pathway: -7
  log(k0), low force pathway: -9

B1: CohE wild-type (domain or fragment)
chain: LSMDQKFAEPGETVEIALNLENFDASWTGLEFLVNYDPKLEVALDGAGDIDYSYGDAIGAMGKKISVGGAISKDLTADGLKGFAFAWGTATAISGNGQLGVFKFTVPADAQPGDEFPVNLTVNVGSFIDANKENIPFETVNGWIKI
[3]
  Kd: 14 ± 4 nM

B2: CohE K87AzF-Fgβ (domain or fragment)
chain 1: B1 chain
chain 2: NEEGFFSARGHRPLDGSWSHPQFEKGSGSC
modifications: azido-phenylalanine (AzF) at 87, covalently conjugated by the azide-DBCO click reaction with the Fgβ-StrepTag-DBCO peptide | C-terminal cysteine bearing DBCO, linked to the azide of AzF87 of the CohE chain
[3]
  Kd: 19 ± 10 nM

B3: CohE F13AzF-Fgβ (domain or fragment)
chain 1: B1 chain
chain 2: B2 chain 2
modifications: azido-phenylalanine (AzF) at 13, covalently conjugated by the azide-DBCO click reaction with the Fgβ-StrepTag-DBCO peptide | C-terminal cysteine bearing DBCO, linked to the azide of AzF13 of the CohE chain
[3]
  Kd: 40 ± 8 nM
